Substrate: p-NP-C4
Details: pH 7.1; 25 °C

Row | Protein | Km | kcat | kcat/Km
1 | unnamed (protein) MKPENKLPVLDLISAEMKTVVNTLQPDLPPWPATGTIAEQRQYYTLERRFWNAGAPEMATRAYMVPTKYGQVETRLFCPQPDSPATLFYLHGGGFILGNLDTHDRIMRLLASYSQCTVIGIDYTLSPEARFPQAIEEIVAACCYFHQQAEDYQINMSRIGFAGDSAGAMLALASALWLRDKQIDCGKVAGVLLWYGLYGLRDSVTRRLLGGVWDGLTQQDLQMYEEAYLSNDADRESPYYCLFNNDLTREVPPCFIAGAEFDPLLDDSRLLYQTLAAHQQPCEFKLYPGTLHAFLHYSRMMKTADEALRDGAQFFTAQL | 500 µM | 30.9 s⁻¹ | 61800 M⁻¹ s⁻¹
2 | unnamed (protein) MKPENKLPVLDLISAEMKTVVNTLQPDLPPWPATGTIAEQRQYYTLERRFWNAGAPEMATRAYMVPTKYGQVETRLFCPQPDSPATLFYLHGGGFILGNLDTNDRIMRLLASYSQCTVIGIDYTLSPEARFPQAIEEIVAACCYFHQQAEDYQINMSRIGFAGDSAGAMLALASALWLRDKQIDCGKVAGVLLWYGLYGLRDSVTRRLLGGVWDGLTQQDLQMYEEAYLSNDADRESPYYCLFNNDLTREVPPCFIAGAEFDPLLDDSRLLYQTLAAHQQPCEFKLYPGTLHAFLHYSRMMKTADEALRDGAQFFTAQL | 250 µM | 12.1 s⁻¹ | 48400 M⁻¹ s⁻¹
3 | unnamed (protein) MKPENKLPVLDLISAEMKTVVNTLQPDLPPWPATGTIAEQRQYYTLERRFWNAGAPEMATRAYMVPTKYGQVETRLFCPQPDSPATLFYLHGGGFILGNLDTHDRIMRLLASYSQCTVIGIDYTLSPEARFPQAIEEIVAACCYFHQQAEDYQINMSRIGFAGDSAGAMLALASALWLRDKQIDCGKVAGVLLWYGLYGLRDSVTRRLLGGVWDGLTQQDLQMYEEAYLSNDADRESPYYCLFNNDLTREVPPCFIAGAEFDPLLADSRLLYQTLAAHQQPCEFKLYPGTLHAFLHYSRMMKTADEALRDGAQFFTAQL | 500 µM | 3.4 s⁻¹ | 6800 M⁻¹ s⁻¹
4 | unnamed (protein) MKPENKLPVLDLISAEMKTVVNTLQPDLPPWPATGTIAEQRQYYTLERRFWNAGAPEMATRAYMVPTKYGQVETRLFCPQPDSPATLFYLHGGGFILGNLDTHDRIMRLLASYSQCTVIGIDYTLSPEARFPQAIEEIVAACCYFHQQAEDYQINMSRIGFAGDSAGAMLALASALWLRDKQIDCGKVAGVLLWYGLYGLRDSVTRRLLGGVWDGLTQQDLQMYEEAYLSNDADRESPYYCLFNNDLTREVPPCFIAGAEFAPLLDDSRLLYQTLAAHQQPCEFKLYPGTLHAFLHYSRMMKTADEALRDGAQFFTAQL | 400 µM | 0.034 s⁻¹ | 85 M⁻¹ s⁻¹
5 | unnamed (protein) MKPENKLPVLDLISAEMKTVVNTLQPDLPPWPATGTIAEQRQYYTLERRFWNAGAPEMATRAYMVPTKYGQVETRLFCPQPDSPATLFYLHGGGFILGNLDTHDRIMRLLASYSQCTVIGIDYTLSPEARFPQAIEEIVAACCYFHQQAEDYQINMSRIGFAGASAGAMLALASALWLRDKQIDCGKVAGVLLWYGLYGLRDSVTRRLLGGVWDGLTQQDLQMYEEAYLSNDADRESPYYCLFNNDLTREVPPCFIAGAEFDPLLDDSRLLYQTLAAHQQPCEFKLYPGTLHAFLHYSRMMKTADEALRDGAQFFTAQL | 1000 µM | 0.007 s⁻¹ | 7 M⁻¹ s⁻¹
6 | unnamed (protein) MKPENKLPVLDLISAEMKTVVNTLQPDLPPWPATGTIAEQRQYYTLERRFWNAGAPEMATRAYMVPTKYGQVETRLFCPQPDSPATLFYLHGGGFILGNLDTHDRIMRLLASYSQCTVIGIDYTLSPQARFPQAIEEIVAACCYFHQQAEDYQINMSRIGFAGDSAGAMLALASALWLRDKQIDCGKVAGVLLWYGLYGLRDSVTRRLLGGVWDGLTQQDLQMYEEAYLSNDADRESPYYCLFNNDLTREVPPCFIAGAEFDPLLDDSRLLYQTLAAHQQPCEFKLYPGTLHAFLHYSRMMKTADEALRDGAQFFTAQL | 350 µM | 7.4 s⁻¹ | 21100 M⁻¹ s⁻¹
7 | unnamed (protein) MKPENKLPVLDLISAEMKTVVNTLQPDLPPWPATGTIAEQRQYYTLERRFWNAGAPEMATRAYMVPTKYGQVETRLFCPQPDSPATLFYLHGGGFILGNLDTHDRIMRLLASYSQCTVIGIDYTLSPEARFPQAIEEIVAACCYFHQQAEDYQINMSRIGFAADSAGAMLALASALWLRDKQIDCGKVAGVLLWYGLYGLRDSVTRRLLGGVWDGLTQQDLQMYEEAYLSNDADRESPYYCLFNNDLTREVPPCFIAGAEFDPLLDDSRLLYQTLAAHQQPCEFKLYPGTLHAFLHYSRMMKTADEALRDGAQFFTAQL | 500 µM | 2.9 s⁻¹ | 5800 M⁻¹ s⁻¹
8 | unnamed (protein) MKPENKLPVLDLISAEMKTVVNTLQPDLPPWPATGTIAEQRQYYTLERRFWNAGAPEMATRAYMVPTKYGQVETRLFCPQPDSPATLFYLHGGGFILGNLDTHDRIMRLLASYSQCTVIGIDYTLSPEARFPQAIEEIVAACCYFHQQAEDYQINMSRIGFAGDSAAAMLALASALWLRDKQIDCGKVAGVLLWYGLYGLRDSVTRRLLGGVWDGLTQQDLQMYEEAYLSNDADRESPYYCLFNNDLTREVPPCFIAGAEFDPLLDDSRLLYQTLAAHQQPCEFKLYPGTLHAFLHYSRMMKTADEALRDGAQFFTAQL | 2000 µM | 49.4 s⁻¹ | 24700 M⁻¹ s⁻¹

From the PETadex activity labels (doi:10.1016/s0014-5793(99)00813-3)
